Assay results reported in patent publication US20210130436A1 (published 2021).
Substitutions are numbered along the chain they refer to. Names and notes keep the numbering of the source.

B1: variant CD80 IgV-Fc E35D/D46E/M47L/V68M/T79M/L85M/L97Q (Fc fusion, not shown: small tags and cut ends; a dimerising Fc or GST)
chain: VIHVTKEVKEVATLSCGHNVSVEELAQTRIYWQKDKKMVLTMMSGELNIWPEYKNRTIFDITNNLSIMILALRPSDEGMYECVVMKYEKDAFKREHQAEVTLSVKAD
B2: variant CD80 IgV-Fc E35D/M47L/V68M/E95V/L97Q (Fc fusion, not shown: small tags and cut ends; a dimerising Fc or GST)
chain: B1 chain with E46D, M79T, M85L, E95V
B3: variant CD80 IgV-Fc Q33R/E35D/M38I/M47L/V68M (Fc fusion, not shown: small tags and cut ends; a dimerising Fc or GST)
chain: B1 chain with Q33R, M38I, E46D, M79T, M85L, Q97L
B4: variant CD80 IgV-Fc E24D/E35D/M47L/V68M/E95V/L97Q (Fc fusion, not shown: small tags and cut ends; a dimerising Fc or GST)
chain: B1 chain with E24D, E46D, M79T, M85L, E95V
B5: variant CD80 IgV-Fc Q27L/Q33L/E35D/T41S/M47V/N48K/V68M/L85M (Fc fusion, not shown: small tags and cut ends; a dimerising Fc or GST)
chain: B1 chain with Q27L, Q33L, T41S, E46D, L47V, N48K, M79T, Q97L
B6: variant CD80 IgV-Fc H18Y/E35D/M38I/M47L/V68M/L85M (Fc fusion, not shown: small tags and cut ends; a dimerising Fc or GST)
chain: B1 chain with H18Y, M38I, E46D, M79T, Q97L
B7: variant CD80 IgV-Fc (inert) H18Y/E35D/M47V/V68L/A71G/D90G (Fc fusion)
chain: B1 chain with H18Y, E46D, L47V, M68L, A71G, M79T, M85L, D90G, Q97L
notes: not shown: inert human IgG1 Fc
B8: variant CD80 IgV-Fc (inert) H18V/A26G/E35D/M47V/V68M/A71G/D90G (Fc fusion)
chain: B1 chain with H18V, A26G, E46D, L47V, A71G, M79T, M85L, D90G, Q97L
notes: as for B7
B9: variant CD80 IgV-Fc (inert) H18V/A26K/E35D/M47L/V68M/A71G (Fc fusion)
chain: B1 chain with H18V, A26K, E46D, A71G, M79T, M85L, Q97L
notes: as for B7
B10: variant CD80 IgV-Fc (inert) H18Y/A26P/E35D/M47I/V68M/A71G (Fc fusion)
chain: B1 chain with H18Y, A26P, E46D, L47I, A71G, M79T, M85L, Q97L
notes: as for B7
B11: variant CD80 IgV-Fc (inert) H18Y/A26P/E35D/M47Y/V68I/A71G/D90G (Fc fusion)
chain: B1 chain with H18Y, A26P, E46D, L47Y, M68I, A71G, M79T, M85L, D90G, Q97L
notes: as for B7
B12: variant CD80 IgV-Fc (inert) H18V/A26D/E35D/M47V/V68M/A71G/D90G (Fc fusion)
chain: B1 chain with H18V, A26D, E46D, L47V, A71G, M79T, M85L, D90G, Q97L
notes: as for B7
B13: variant CD80 IgV-Fc (inert) H18V/A26P/E35D/M47L/V68M/A71G (Fc fusion)
chain: B1 chain with H18V, A26P, E46D, A71G, M79T, M85L, Q97L
notes: as for B7
B14: variant CD80 IgV-Fc (inert) H18V/A26Q/E35D/M47V/V68L/A71G/D90G (Fc fusion)
chain: B1 chain with H18V, A26Q, E46D, L47V, M68L, A71G, M79T, M85L, D90G, Q97L
notes: as for B7
B15: variant CD80 IgV-Fc (inert) H18Y/E35D/M47V/V68M/A71G (Fc fusion)
chain: B1 chain with H18Y, E46D, L47V, A71G, M79T, M85L, Q97L
notes: Fc fusions are dimeric by the general description; not shown: inert human IgG1 Fc
B16: E35D/M47I/T62S/L85Q/E88D CD80 IgV-Fc (Fc fusion, not shown: a dimerising Fc or GST)
chain: B1 chain with E46D, L47I, T62S, M68V, M79T, M85Q, E88D, Q97L
B17: H18Y/E35D/M47I/V68M/A71G/R94L CD80 IgV-Fc (Fc fusion, not shown: a dimerising Fc or GST)
chain: B1 chain with H18Y, E46D, L47I, A71G, M79T, M85L, R94L, Q97L
B18: WT CD80 ECD-Fc (Fc fusion, not shown: a dimerising Fc or GST)
chain: VIHVTKEVKEVATLSCGHNVSVEELAQTRIYWQKEKKMVLTMMSGDMNIWPEYKNRTIFDITNNLSIVILALRPSDEGTYECVVLKYEKDAFKREHLAEVTLSVKADFPTPSISDFEIPTSNIRRIICSTSGGFPEPHLSWLENGEELNAINTTVSQDPETELYAVSSKLDFNMTTNHSFMCLIKYGHLRVNQTFNWNTTKQEHFPDN
notes: The label 'H22.6' is not explained; also called WT CD80 ECD-Fc H22.6
B19: A26E/Q27R/E35D/M47L/N48Y/L85Q CD80 IgV-Fc (Fc fusion, not shown: a dimerising Fc or GST)
chain: B1 chain with A26E, Q27R, E46D, N48Y, M68V, M79T, M85Q, Q97L
B20: variant CD80 IgV-Fc E35D/M47L/A71G/L97Q (Fc fusion, not shown: a dimerising Fc or GST)
chain: B1 chain with E46D, M68V, A71G, M79T, M85L
B21: wild-type CD80 ECD-Fc (R&D Systems) (Fc fusion)
chain: B18 chain
notes: This is a commercial protein; also called WT CD80 ECD-Fc (R&D); unmodified CD80-ECD-Fc fusion molecule; not shown: Bought protein (R&D Systems)
B22: variant CD80 IgV-Fc E35D/D46V/M47I/A71G/F92V (Fc fusion, not shown: a dimerising Fc or GST)
chain: B1 chain with E46V, L47I, M68V, A71G, M79T, M85L, F92V, Q97L

biological target: T1, human CTLA4 (huCTLA4), full-length, stably expressed on CHO cells (human, UniProt P16410 36-223); test: flow cytometry, CHO cells expressing huCTLA4
T1 construct: whole, on cells
T1 sequence (P16410 36-223): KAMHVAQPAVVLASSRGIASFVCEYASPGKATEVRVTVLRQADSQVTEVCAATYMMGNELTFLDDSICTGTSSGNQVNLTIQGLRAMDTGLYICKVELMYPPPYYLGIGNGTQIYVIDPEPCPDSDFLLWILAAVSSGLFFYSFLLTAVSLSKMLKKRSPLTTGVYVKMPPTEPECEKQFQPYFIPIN

MFI at 33.3 nM [MFI]	Binder
96	B1
15000	B2
107	B3
15500	B4
178	B5

biological target: T2, human PD-L1 (huPD-L1), full-length, stably expressed on CHO cells (human, UniProt Q9NZQ7 19-290); test: flow cytometry, CHO cells expressing huPD-L1
T2 construct: whole, on cells
T2 sequence (Q9NZQ7 19-290): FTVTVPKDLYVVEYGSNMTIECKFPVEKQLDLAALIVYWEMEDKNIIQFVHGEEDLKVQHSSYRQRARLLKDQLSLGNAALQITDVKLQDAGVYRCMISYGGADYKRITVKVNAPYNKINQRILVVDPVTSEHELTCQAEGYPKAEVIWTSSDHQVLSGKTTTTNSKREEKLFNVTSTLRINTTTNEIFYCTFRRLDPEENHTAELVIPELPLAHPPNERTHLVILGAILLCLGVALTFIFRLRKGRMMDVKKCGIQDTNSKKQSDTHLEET

MFI at 33.3 nM [MFI]	Binder
3590	B6
4620	B1
18600	B2
16500	B3
18600	B4
16500	B5

biological target: T2, human PD-L1 (huPD-L1), full-length, …; test: flow cytometry; MFI on PD-L1 CHO cells over MFI on Jurkat cells (CD28)

Ratio of PDL1:CD28 [ratio]	Binder
215	B6
325	B1
1300	B2
1110	B3
1270	B4
1130	B5

biological target: T3, human PD-L1 (human, UniProt Q9NZQ7 19-290); test: flow cytometry MFI relative to WT CD80 IgV-Fc, CHO/huPD-L1 cells, 33.3 nM
T3 construct: whole, on cells; CHO cells stably expressing huPD-L1; also called huPD-L1
T3 sequence (Q9NZQ7 19-290): as above

Fold change to WT CD80 [fold]	Binder
290	B7
401	B8
408	B9
330	B10
165	B11
409	B12
318	B13
204	B14
393	B15

biological target: T4, human CTLA-4 (human, UniProt P16410 36-223); test: flow cytometry MFI relative to WT CD80 IgV-Fc, CHO/huCTLA-4 cells, 33.3 nM
T4 construct: whole, on cells; CHO cells stably expressing huCTLA4; also called huCTLA4
T4 sequence (P16410 36-223): as the sequence (P16410 36-223) above

Fold change to WT CD80 [fold]	Binder
11.9	B7
18.4	B8
16.6	B9
8.8	B10
6	B11
16	B12
11.7	B13
12.8	B14
17.1	B15

biological target: T5, human CD28 (human, UniProt P10747 19-220); test: flow cytometry MFI relative to WT CD80 IgV-Fc, Jurkat cells (CD28), 33.3 nM
T5 construct: whole, on cells; Jurkat/IL2 reporter cells, which endogenously express CD28

Fold change to WT CD80 [fold]	Binder
25	B7
80.3	B8
35.7	B9
50.2	B10
17.8	B11
61.3	B12
24	B13
30.6	B14
31.6	B15

biological target: T1, human CTLA4 (huCTLA4), full-length, …; test: flow cytometry, CHO cells expressing huCTLA4; MFI against WT CD80 of the table

Fold change to WT CD80 [fold]	Binder
0.1	B1
8.5	B2
0.1	B3
8.8	B4
0.1	B5

biological target: T2, human PD-L1 (huPD-L1), full-length, …; test: flow cytometry, CHO cells expressing huPD-L1; MFI against WT CD80 of the table

Fold change to WT CD80 [fold]	Binder
69.7	B6
89.7	B1
361	B2
320	B3
362	B4
320	B5

biological target: T6, human CTLA-4 (human, UniProt P16410 36-223); test: flow cytometry, CHO cells stably expressing huCTLA4, 33.3 nM, PE anti-human Fc
T6 construct: whole, on cells; also called huCTLA4
T6 sequence (P16410 36-223): as above

MFI at 33.3 nM [MFI]	Binder
8910	B16

biological target: T7, human PD-L1 (human, UniProt Q9NZQ7 19-290); test: flow cytometry, CHO cells stably expressing huPD-L1, 33.3 nM, PE anti-human Fc
T7 construct: whole, on cells; also called huPD-L1
T7 sequence (Q9NZQ7 19-290): as the sequence (Q9NZQ7 19-290) above

MFI at 33.3 nM [MFI]	Binder
14500	B17
8420	B16

biological target: T8, human CD28 (human, UniProt P10747 19-220); test: flow cytometry, Jurkat/IL2 reporter cells (endogenous CD28), 33.3 nM, PE anti-human Fc
T8 construct: whole, on cells; Endogenous CD28 of Jurkat/IL2 reporter cells

MFI at 33.3 nM [MFI]	Binder
30	B18
78	B19
1900	B17

biological target: T3, human PD-L1; test: flow cytometry, MFI on CHO/huPD-L1 cells divided by MFI on Jurkat cells (CD28), 33.3 nM

Ratio of PDL1:CD28 [ratio]	Binder
18.8	B7
8.1	B8
18.5	B9
10.6	B10
15	B11
10.8	B12
21.4	B13
10.7	B14
20.1	B15

biological target: T3, human PD-L1; test: flow cytometry, CHO cells stably expressing huPD-L1, 33.3 nM Fc fusion, PE anti-human Fc

MFI at 33.3 nM [MFI]	Binder
47900	B7
66200	B8
67300	B9
54500	B10
27300	B11
67500	B12
52400	B13
33600	B14
64900	B15

biological target: T4, human CTLA-4; test: flow cytometry, CHO cells stably expressing huCTLA-4, 33.3 nM Fc fusion, PE anti-human Fc

MFI at 33.3 nM [MFI]	Binder
16500	B7
25400	B8
22900	B9
12200	B10
8280	B11
22100	B12
16200	B13
17700	B14
23600	B15

biological target: T9, human CTLA-4 (CTLA4), full-length, expressed on the surface of CHO cells (human, UniProt P16410 36-223); test: flow cytometry, CHO cells stably expressing human CTLA-4, 33.3 nM Fc fusion, PE anti-human Fc
T9 construct: also called huCTLA4
T9 sequence (P16410 36-223): as the sequence (P16410 36-223) above

MFI at 33.3 nM [MFI]	Binder
226000	B20

biological target: T10, human CD28, endogenously expressed on Jurkat/IL2 reporter cells (human, UniProt P10747 19-220); test: flow cytometry, Jurkat/IL2 reporter cells (endogenous CD28), 33.3 nM Fc fusion, PE anti-human Fc
T10 construct: This is the endogenous CD28 of Jurkat cells

MFI at 33.3 nM [MFI]	Binder
7630	B21
300	B20
7540	B22

biological target: T5, human CD28; test: as above

MFI at 33.3 nM [MFI]	Binder
2550	B7
8190	B8
3640	B9
5120	B10
1820	B11
6250	B12
2450	B13
3130	B14
3230	B15
